Results on one molecule are retold here after patent US20250376536A1 (Bristol-Myers Squibb, published 2025).

One experiment deals with T1, mouse FAP protein (mouse, UniProt P97321 26-761).
T1 sequence (looked up): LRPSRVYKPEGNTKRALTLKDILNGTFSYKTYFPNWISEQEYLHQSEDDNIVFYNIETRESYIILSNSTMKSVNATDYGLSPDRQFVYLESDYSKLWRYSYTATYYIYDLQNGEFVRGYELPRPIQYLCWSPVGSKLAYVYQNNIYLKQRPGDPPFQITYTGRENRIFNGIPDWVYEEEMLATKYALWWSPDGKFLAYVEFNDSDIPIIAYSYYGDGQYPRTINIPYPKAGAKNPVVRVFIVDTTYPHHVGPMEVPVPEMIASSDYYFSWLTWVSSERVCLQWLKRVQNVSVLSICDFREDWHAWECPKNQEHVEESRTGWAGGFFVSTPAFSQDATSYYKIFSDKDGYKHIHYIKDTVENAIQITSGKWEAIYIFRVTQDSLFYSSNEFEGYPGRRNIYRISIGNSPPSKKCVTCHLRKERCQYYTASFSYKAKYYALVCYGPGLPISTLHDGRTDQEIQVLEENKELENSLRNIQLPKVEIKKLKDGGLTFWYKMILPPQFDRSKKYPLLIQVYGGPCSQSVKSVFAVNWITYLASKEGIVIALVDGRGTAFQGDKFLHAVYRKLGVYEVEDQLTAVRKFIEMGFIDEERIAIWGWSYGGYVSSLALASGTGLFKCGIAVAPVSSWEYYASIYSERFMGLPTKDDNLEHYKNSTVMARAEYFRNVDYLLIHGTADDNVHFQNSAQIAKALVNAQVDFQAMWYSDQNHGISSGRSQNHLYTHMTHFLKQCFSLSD
Description: SPR. In general terms: In SPR one partner is held on a chip, and binding of the other changes the refractive index at the surface.

The next experiment deals with T2, mouse CD40 protein (mouse, UniProt P27512 20-193, limits assumed).
T2 sequence (looked up): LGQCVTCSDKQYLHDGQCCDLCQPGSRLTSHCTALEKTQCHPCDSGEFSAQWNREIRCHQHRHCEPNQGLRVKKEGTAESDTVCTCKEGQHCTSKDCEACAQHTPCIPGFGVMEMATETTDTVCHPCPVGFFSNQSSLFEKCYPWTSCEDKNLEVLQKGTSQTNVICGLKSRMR
Description: SPR.

Experiment [1] has as its target T3, mouse CD40 on cells (mouse, UniProt P27512 20-289).
T3 construct: whole, on cells; also called Mouse CD40-positive macrophage; Mouse CD40-positive B cell
T3 sequence (looked up): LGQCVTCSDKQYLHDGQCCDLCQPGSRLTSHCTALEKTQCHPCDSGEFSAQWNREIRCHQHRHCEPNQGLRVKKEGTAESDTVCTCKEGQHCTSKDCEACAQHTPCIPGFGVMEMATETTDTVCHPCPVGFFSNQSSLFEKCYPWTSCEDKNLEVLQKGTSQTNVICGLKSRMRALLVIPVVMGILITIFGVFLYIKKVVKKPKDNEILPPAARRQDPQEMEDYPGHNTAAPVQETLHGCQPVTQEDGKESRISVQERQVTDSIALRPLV
In words: binding to mouse CD40-positive macrophages.

The target of experiment [2] is T3, mouse CD40 on cells. In words: binding to mouse CD40-positive B cells.
Experiment [3] has as its target T3, mouse CD40 on cells. Description: cell-based or functional assay.
The target of another experiment is T4, mouse FAP on HEK cells (mouse, UniProt P97321 1-761).
T4 construct: whole, on cells; also called Mouse FAP-positive HEK cells; mouse FAP-expressing HEK cells
T4 sequence (looked up): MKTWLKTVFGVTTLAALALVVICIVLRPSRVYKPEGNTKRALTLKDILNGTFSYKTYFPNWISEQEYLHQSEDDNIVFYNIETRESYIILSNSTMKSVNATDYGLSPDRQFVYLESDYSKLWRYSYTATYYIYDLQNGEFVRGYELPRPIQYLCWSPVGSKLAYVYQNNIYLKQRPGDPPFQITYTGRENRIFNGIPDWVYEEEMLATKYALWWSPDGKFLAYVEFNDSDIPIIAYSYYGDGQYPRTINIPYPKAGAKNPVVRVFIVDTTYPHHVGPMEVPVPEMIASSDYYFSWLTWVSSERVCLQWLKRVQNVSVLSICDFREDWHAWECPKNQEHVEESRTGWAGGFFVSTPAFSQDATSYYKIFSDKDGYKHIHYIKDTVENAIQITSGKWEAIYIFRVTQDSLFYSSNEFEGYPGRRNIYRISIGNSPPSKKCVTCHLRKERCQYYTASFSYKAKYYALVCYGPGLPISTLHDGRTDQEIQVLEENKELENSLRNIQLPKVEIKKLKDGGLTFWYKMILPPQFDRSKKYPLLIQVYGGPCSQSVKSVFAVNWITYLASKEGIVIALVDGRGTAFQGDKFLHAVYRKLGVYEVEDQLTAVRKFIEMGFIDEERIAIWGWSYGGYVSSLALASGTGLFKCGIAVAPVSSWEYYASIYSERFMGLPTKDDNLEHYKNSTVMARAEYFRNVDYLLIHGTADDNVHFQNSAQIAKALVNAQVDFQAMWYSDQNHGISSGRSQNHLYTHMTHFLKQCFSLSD
In words: binding to mouse FAP-positive HEK cells.

B1: mCD40×FAP.LP62 (2+1 anti-mouse CD40×FAP bispecific antibody) (bispecific antibody)
chain: EVQLLESGGGLVQPGGSLRLSCAASGFTFSSRGMSWVRQAPGKCLEWVSFISSSGTYVYYADSVKGRFTISRDNSKNTLYLQMNSLRAEDTAVYYCARDLPRTGVYFGMDVWGQGTTVTVSSGGGGSGGGGSGGGGSGGGGSDIQMTQSPSSLSASVGDRVTITCRASQSIFNYLNWYQQKPGKAPKLLIYGASTLQSGVPSRFSGSGSGTDFTLTISSLQPEDFATYYCQESYSTPYTFGCGTKVEIK
Consider B1, for which the equilibrium dissociation constant (Kd) (as a rule, a measure of binding affinity in units of concentration) in the experiment with mouse FAP protein came to 3.4 nM; with mouse CD40 protein, 45.8 nM. The concentration for a half-maximal effect (EC50) – broadly, the concentration giving half of the maximal effect – in the experiment with mouse CD40 on cells [1] amounted to 7.3 nM; with mouse CD40 on cells [2], 12.1 nM; with mouse FAP on HEK cells it was 3.17 nM. For the same molecule, in the experiment with mouse CD40 on cells [3], the “CCL22 secretion, murine BMDM + MC38-FAP co-culture, EC50” value was 1.02 nM. For the same molecule, in the experiment with mouse CD40 on cells [3], the “IL12p40 secretion, murine BMDM + MC38-FAP co-culture, EC50” value came out at 1.43 nM.
